The text below walks through data of patent US20160215040A1 (Regeneron, published 2016).

The target of assay [1] is T1, Ebola virus GP, Sudan strain, on VLPs (Ebola virus, Sudan strain, UniProt Q7T9D9 33-676).
T1 construct: also called Sudan NC_006432
T1 sequence: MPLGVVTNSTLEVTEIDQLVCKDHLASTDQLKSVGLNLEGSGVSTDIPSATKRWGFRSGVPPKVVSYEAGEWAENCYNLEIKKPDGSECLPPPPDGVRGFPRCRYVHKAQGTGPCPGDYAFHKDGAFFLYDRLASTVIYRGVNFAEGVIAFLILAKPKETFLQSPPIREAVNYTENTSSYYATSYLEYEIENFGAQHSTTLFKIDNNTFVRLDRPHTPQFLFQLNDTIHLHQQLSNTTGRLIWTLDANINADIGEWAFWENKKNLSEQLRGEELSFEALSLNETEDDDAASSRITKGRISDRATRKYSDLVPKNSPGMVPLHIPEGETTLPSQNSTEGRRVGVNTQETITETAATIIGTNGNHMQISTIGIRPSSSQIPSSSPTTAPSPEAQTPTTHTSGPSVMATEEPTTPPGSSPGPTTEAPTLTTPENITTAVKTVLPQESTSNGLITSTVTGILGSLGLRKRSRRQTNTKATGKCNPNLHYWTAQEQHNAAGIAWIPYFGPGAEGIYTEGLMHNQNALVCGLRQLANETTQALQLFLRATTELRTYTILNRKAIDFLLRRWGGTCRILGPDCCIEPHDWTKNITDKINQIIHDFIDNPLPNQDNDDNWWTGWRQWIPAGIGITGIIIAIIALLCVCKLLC
The experiment in a line: MSD, VLPs coated.

Assay [2] concerns the target T2, Ebola virus GP, Cote d'Ivoire strain, on VLPs (Ebola virus, Cote d'Ivoire strain, UniProt Q66810 33-676).
T2 construct: also called Cote d'Ivoire FJ217162; Ivory Coast
T2 sequence: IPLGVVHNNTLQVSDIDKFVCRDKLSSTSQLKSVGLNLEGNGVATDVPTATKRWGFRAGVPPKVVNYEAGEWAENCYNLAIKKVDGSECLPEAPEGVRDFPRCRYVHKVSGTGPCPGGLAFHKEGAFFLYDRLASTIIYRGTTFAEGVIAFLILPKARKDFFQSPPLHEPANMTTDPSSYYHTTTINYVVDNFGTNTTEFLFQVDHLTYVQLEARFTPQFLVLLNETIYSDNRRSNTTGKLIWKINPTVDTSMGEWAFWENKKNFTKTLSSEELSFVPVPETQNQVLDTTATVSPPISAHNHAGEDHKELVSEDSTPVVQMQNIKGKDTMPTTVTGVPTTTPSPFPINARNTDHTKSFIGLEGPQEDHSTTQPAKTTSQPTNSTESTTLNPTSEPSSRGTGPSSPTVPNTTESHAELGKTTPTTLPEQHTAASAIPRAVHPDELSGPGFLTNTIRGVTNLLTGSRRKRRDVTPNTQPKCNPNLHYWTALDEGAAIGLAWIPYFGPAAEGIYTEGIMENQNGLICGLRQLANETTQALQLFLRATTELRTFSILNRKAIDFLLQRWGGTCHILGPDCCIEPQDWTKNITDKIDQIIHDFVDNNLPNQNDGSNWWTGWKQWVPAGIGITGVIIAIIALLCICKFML
Kind of assay: MSD, VLPs coated.

The target of assay [3] is T3, hCNTFR.mmh (ciliary neurotrophic factor receptor.mmh) (human (printed as hCNTFR), UniProt P26992 23-342).
T3 construct: also called negative control protein; not shown: mmh (myc-myc-hexahistidine) tag
T3 sequence: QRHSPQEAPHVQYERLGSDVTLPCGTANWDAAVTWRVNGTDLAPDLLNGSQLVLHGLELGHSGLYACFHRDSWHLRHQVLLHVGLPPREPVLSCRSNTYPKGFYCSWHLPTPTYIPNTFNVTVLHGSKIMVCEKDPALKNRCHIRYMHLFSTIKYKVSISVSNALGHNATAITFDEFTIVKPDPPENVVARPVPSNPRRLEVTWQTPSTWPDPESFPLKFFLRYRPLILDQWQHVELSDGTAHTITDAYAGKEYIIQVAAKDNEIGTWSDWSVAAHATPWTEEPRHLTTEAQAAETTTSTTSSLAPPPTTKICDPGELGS
The experiment in a line: BLI, mAb captured, 25C. On the technique in general: In BLI a coated tip is dipped into the sample, and binding shifts an interference pattern.

For assay [4], the target named is T4, Ebola virus GP with a C-terminal polyhistidine tag (Sino Biologicals, Catalog #40442-V08B1) (Ebola virus, UniProt P87666 33-650).
T4 construct: also called EbolaGP.his; Ebola virus GP.his
Kind of assay: SPR 37C, mAb captured.

Assay [5] concerns the target T4, Ebola virus GP with a C-terminal …. The experiment in a line: SPR 37C, mAb captured, pH chase.
For assay [6] the target is unchanged. The experiment in a line: SPR 25C, mAb captured.

B1: H1H17358N2 (antibody, V domains shown)
VH: EVQLVESGGGLVQPGGSLRLSCAASGFTFSTYEMNWVRQAPGKGLEWVSYSSSSGRTIYYADSVKGRFTISRDNAKNSLFLQMNSLRAEDTAVYYCARPSSIETLLRNQYHYGVDVWGQGTTVTVSS
VL: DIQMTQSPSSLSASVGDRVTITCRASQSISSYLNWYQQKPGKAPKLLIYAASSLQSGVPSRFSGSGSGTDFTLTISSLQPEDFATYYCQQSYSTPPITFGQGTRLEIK
In the case of B1, the figures for the binding result in assay [1], in assay [2] and in assay [3] were “no binding”, “no binding” and “no binding (tested: below 0.10 nm at 300 nM)”, respectively.

B2: H1H17139P (antibody, V domains shown)
VH: EVQLVESGGGLVQPGGSLRLSCAASGFTFSSYDMHWVRQATGKGLEWVSAIGTAGDTYYPGSVKGRFTISRENAKNSLYLQMNSLRAGDTAVYYCARTWFGELYFDYWGQGTLVTVSS
VL: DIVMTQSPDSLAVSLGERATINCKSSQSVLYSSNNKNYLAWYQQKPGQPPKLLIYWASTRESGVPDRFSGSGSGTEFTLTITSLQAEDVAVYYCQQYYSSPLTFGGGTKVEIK
Broadly, the Kd is the free concentration of one partner at which half of the binding sites on the other are occupied at equilibrium, for simple one-to-one binding. High values mean weaker binding, low ones tighter binding. In general, koff refers to a measure of how fast the partners let go of each other. Read a low koff as a long-lived complex. The kon is the second-order rate constant of association. Low readings indicate slow association, high ones fast association. The term t½ denotes the time in which the quantity being followed falls by half. Low values mean fast loss, high ones slow loss. As to B2, in assay [1], the binding result is reported as “no binding”. Besides, in assay [2], the binding result is reported as “no binding”. In assay [4], this molecule had a Kd of 20.6 nM, a koff of 0.000512 s⁻¹, a kon of 24800 M⁻¹ s⁻¹ and a t½ of 22.5 min. In assay [5], the “t½ ratio pH 7.4/pH 5.0” value was 0.2 and the “t½ ratio pH 7.4/pH 6.0” value is 0.2. Besides, in assay [6], the Kd came to 7.13 nM, the koff amounted to 0.000163 s⁻¹, the kon turned out to be 22900 M⁻¹ s⁻¹ and the t½ was found to be 70.8 min. Besides, the binding result in assay [3] was “no binding (tested: below 0.10 nm at 300 nM)”.

B3: H1H17219P (antibody, V domains shown)
VH: QVQLQQSGPGLVKPSQTLSLTCAISGDSVSSNIPAWNWIRQSPSRGLEWLGRTYYRSKWYNDYAVSVKSRITINPDTSKNHFSLQLNSVTPEDTAVYYCARGRVYDRSSRYFYAMDVWGQGTTVTVSS
VL: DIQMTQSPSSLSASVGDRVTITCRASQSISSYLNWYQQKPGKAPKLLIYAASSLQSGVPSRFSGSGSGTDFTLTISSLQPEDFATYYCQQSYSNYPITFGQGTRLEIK
For the molecule B3, the binding result in assay [1] is on record as “no binding”. In addition, the binding result in assay [2] is “no binding”. For the same molecule, in assay [4], the Kd came out at 0.227 nM, the koff was at most 1e-05 s⁻¹, the kon turned out to be 44100 M⁻¹ s⁻¹ and the t½ is at least 1160 min. In assay [5], the “t½ ratio pH 7.4/pH 5.0” value turned out to be 1 and the “t½ ratio pH 7.4/pH 6.0” value was found to be 1. In assay [6], this molecule came in with a Kd of 0.934 nM, a koff of 2.9e-05 s⁻¹, a kon of 31100 M⁻¹ s⁻¹ and a t½ of 398 min. Further, in assay [3], the binding result is recorded as “no binding (tested: below 0.10 nm at 300 nM)”.

B4: H1H17228P (antibody, V domains shown)
VH: EVQLVESGGGLVQPGGSLRLSCAASGFTFSNYAMIWVRQAPGKGLEWVSGISGSGGSIYYADSVKGRFTISRDNSKNTLYLQMNSLRAEDTAVYYCAKEGIISMVRGLINYYHGMDVWGQGTTVTVSS
VL: not shown
For B4, the binding result in assay [1] was “no binding”. The binding result in assay [2] is on record as “no binding”. In assay [4], this molecule yielded a Kd of 52.3 nM, a koff of 0.00383 s⁻¹, a kon of 73200 M⁻¹ s⁻¹ and a t½ of 3 min. In addition, in assay [5], the “t½ ratio pH 7.4/pH 5.0” value was 0.5 and the “t½ ratio pH 7.4/pH 6.0” value worked out at 0.6. In assay [6], the Kd was determined as 37.6 nM, the koff was 0.00169 s⁻¹, the kon amounted to 44900 M⁻¹ s⁻¹ and the t½ came out at 6.9 min. In assay [3], the binding result is given as “no binding (tested: below 0.10 nm at 300 nM)”.

B5: H1H17214P (antibody, V domains shown)
VH: EVQLVESGGGLVQPGGSLRLSCAASKFTFDTFAMSWVRQAPGKGLEWVSFISSSGGRTDYVDSVKGRFTISRDNSKNTLYLQMNSLRAEDTAVYYCAKERTIFGVLILGPDNYGMDVWGQGTTVTVSS
VL: DIQMTQSPSSLSAFVGDRVTITCRASQSISTYLNWYQQKPGKAPKLLIYAASSLQSGVSSRFSGSGSGTDFTLTISSLQPEDFATYYCQQSYSAPPITFGQGTRLEIK
Consider B5, for which the binding result in assay [1] is on record as “no binding”. Besides, the binding result in assay [2] is listed as “no binding”. Besides, in assay [4], binding was put at a Kd of 4.2 nM, the koff stood at 0.000154 s⁻¹, the kon was 36700 M⁻¹ s⁻¹ and the t½ amounted to 74.9 min. For the same molecule, in assay [5], the “t½ ratio pH 7.4/pH 5.0” value was 1 and the “t½ ratio pH 7.4/pH 6.0” value was 1. In assay [6], this molecule displayed a Kd of at most 0.266 nM, a koff of at most 1e-05 s⁻¹, a kon of 37600 M⁻¹ s⁻¹ and a t½ of at least 1160 min. Further, in assay [3], the binding result is “no binding (tested: below 0.10 nm at 300 nM)”.

B6: H1H17223P (antibody, V domains shown)
VH: EVQLVESGGGLVQPGGSLRLSCAASGFTFRTYDMHWVRQATGKGLEWVSAIGTAGDTYYPGSVKGRFTISRENAKNSLYLQMNSLRAGDTAVYYCARTIFGVVLTFDYWGQGTLVTVSS
VL: DIQMTQSPSSLSASVGDRVTITCRASQSISSSLNWYQQKPGKAPKLLIYAASSLHSGVPSRFSGSGSGTDFTLTISSLQPEDFATYYCQQTYSIPPTTFGQGTKVEIK
As for B6, the binding result in assay [1] is “no binding”. Further, the binding result in assay [2] is given as “no binding”. In assay [4], this molecule came in with a Kd of 6.89 nM, a koff of 0.000242 s⁻¹, a kon of 35100 M⁻¹ s⁻¹ and a t½ of 47.7 min. Moreover, in assay [5], the “t½ ratio pH 7.4/pH 5.0” value came to 0.4 and the “t½ ratio pH 7.4/pH 6.0” value turned out to be 0.4. In assay [6], this molecule showed a Kd of 2.03 nM, a koff of 6.08e-05 s⁻¹, a kon of 30000 M⁻¹ s⁻¹ and a t½ of 190 min. In assay [3], the binding result is “no binding (tested: below 0.10 nm at 300 nM)”.

B7: H1H17203P (antibody, V domains shown)
VH: QVQLVESGGGVVQPGRSLRLSCAASGFTFNNYGMHWVRQAPGMGLEWVAVIWHDGSDKYYADSVKGRFTISRDNSKNTLYLQMNSLRAEDTAVYYCARNWNLFDYWGQGTLVTVSS
VL: DIQMTQSPSSLSASVGDRITITCRASQSISTYLHWYQQKPGKAPKLLIYAASTLQSGVPSRFSGSGSGTDFTLTISSLQPEDFATYYCQQSFSTPPINFGQGTKLEIK
As to B7, the binding result in assay [1] is given as “no binding”. In addition, the binding result in assay [2] is “no binding”. In addition, in assay [4], binding was characterised by a dissociation constant (Kd) of 30.9 nM, the koff is 0.00119 s⁻¹, the kon was 38500 M⁻¹ s⁻¹ and the t½ was determined as 9.7 min. In assay [5], the “t½ ratio pH 7.4/pH 5.0” value stood at 0.1 and the “t½ ratio pH 7.4/pH 6.0” value came to 0.2. In assay [6], the Kd is 6.04 nM, the koff was determined as 0.000168 s⁻¹, the kon was determined as 27800 M⁻¹ s⁻¹ and the t½ amounted to 68.7 min. Moreover, the binding result in assay [3] is reported as “no binding (tested: below 0.10 nm at 300 nM)”.

B8: H1M17357N (antibody, V domains shown)
VH: QVQLVQSGAEVKKPGASVKVSCKASGYTFTSYYMHWVRQAPGQGLEWMGIINPSGGSTSYAQKFQGRVTMTRDTSTSTVYMELSSLRSEDTAVYYCAREIGEAGEVFNYWGQGTLVTVSS
VL: DIQMTQSPSSLSASVGDRVTITCRASQSISRYLNWYQHKPGKAPKVLIYAASILQSGVPSRFSGSGSGTDFTLTISSLQPEDFATYYCQQSYSTPPITFGQGTRLEIK
notes: also called HCAF09D11-13
In the case of B8, the binding result in assay [1] is reported as “no binding”. For the same molecule, the binding result in assay [2] is given as “no binding”. Moreover, in assay [4], the Kd is 78.1 nM, the off-rate (koff) worked out at 0.00184 s⁻¹, the kon amounted to 23500 M⁻¹ s⁻¹ and the t½ was found to be 6.3 min. In addition, in assay [5], the “t½ ratio pH 7.4/pH 5.0” value was determined as 0.5 and the “t½ ratio pH 7.4/pH 6.0” value was 0.8. Moreover, the binding result in assay [3] is “no binding (tested: below 0.10 nm at 300 nM)”.
